Results published in publication PMC9758184.
Like-named read-outs stand apart in the source and are kept apart here. Blank lines part the entries; values can stand above or below the substance they belong to.

Key:
Assay in all cases: SEC; Superdex 200 HR 10/30, cold 1x PBS pH 7.2; native size of each protein from its own elution volume against size standards, dark- or light-incubated (same result in both); PmSB-LOV C53A run only in the mixture with PmlR2
[1] = target: PmSB-LOV (Pseudomonas mendocina Sensory box-LOV), wild-type tag-free recombinant protein (Pseudomonas mendocina NBRC 14162)
[2] = target: PmSB-LOV (Pseudomonas mendocina Sensory box-LOV), wild-type tag-free recombinant protein (Pseudomonas mendocina NBRC 14162); remark: listed apart in the source
[3] = target: PmlR2 (Pseudomonas mendocina light-inducible transcriptional regulator), tag-free recombinant protein (Pseudomonas mendocina NBRC 14162)
[4] = target: PmlR2-N (1-113 aa), tag-free recombinant protein containing only the HTH DNA-binding domain (Pseudomonas mendocina NBRC 14162)

stoichiometry N [1]: 3
stoichiometry N [2]: 2
Substance: PmSB-LOV (Pseudomonas mendocina Sensory box-LOV), wild-type tag-free recombinant protein (natural protein)

stoichiometry N [3]: 6
Substance: PmlR2 (Pseudomonas mendocina light-inducible transcriptional regulator), tag-free recombinant protein (natural protein)

stoichiometry N [4]: 2
Substance: PmlR2-N (1-113 aa), tag-free recombinant protein containing only the HTH DNA-binding domain (domain or fragment)
